B1: Frizzled-4 (Homo sapiens), Q9ULV1 (parent)
chain: MAWRGAGPSVPGAPGGVGLSLGLLLQLLLLLGPARGFGDEEERRCDPIRISMCQNLGYNVTKMPNLVGHELQTDAELQLTTFTPLIQYGCSSQLQFFLCSVYVPMCTEKINIPIGPCGGMCLSVKRRCEPVLKEFGFAWPESLNCSKFPPQNDHNHMCMEGPGDEEVPLPHKTPIQPGEECHSVGTNSDQYIWVKRSLNCVLKCGYDAGLYSRSAKEFTDIWMAVWASLCFISTAFTVLTFLIDSSRFSYPERPIIFLSMCYNIYSIAYIVRLTVGRERISCDFEEAAEPVLIQEGLKNTGCAIIFLLMYFFGMASSIWWVILTLTWFLAAGLKWGHEAIEMHSSYFHIAAWAIPAVKTIVILIMRLVDADELTGLCYVGNQNLDALTGFVVAPLFTYLVIGTLFIAAGLVALFKIRSNLQKDGTKTDKLERLMVKIGVFSVLYTVPATCVIACYFYEISNWALFRYSADDSNMAVEMLKIFMSLLVGITSGMWIWSAKTLHTWQKCSNRLVNSGKVKREKRGNGWVKPGKGSETVV
B2: Norrin (Homo sapiens), Q00604 (parent)
chain: MRKHVLAASFSMLSLLVIMGDTDSKTDSSFIMDSDPRRCMRHHYVDSISHPLYKCSSKMVLLARCEGHCSQASRSEPLVSFSTVLKQPFRSSCHCCRPQTSKLKALRLRCSGGMRLTATYRYILSCHCEECNS

Variants of: B1
Details: with ndp_human NDP, Q00604

| Variant | effect of a mutation on the interaction |
| --- | --- |
| MAWRGAGPSVPGAPGGVGLSLGLLLQLLLLLGPARGFGDEEERRCDPIRISMCQNLGYNVTKMPNLVGHELQTDAELQLTTFTPLIQYGCSSQLQFFLCSVYVPVCTEKINIPIGPCGGMCLSVKRRCEPVLKEFGFAWPESLNCSKFPPQNDHNHMCMEGPGDEEVPLPHKTPIQPGEECHSVGTNSDQYIWVKRSLNCVLKCGYDAGLYSRSAKEFTDIWMAVWASLCFISTAFTVLTFLIDSSRFSYPERPIIFLSMCYNIYSIAYIVRLTVGRERISCDFEEAAEPVLIQEGLKNTGCAIIFLLMYFFGMASSIWWVILTLTWFLAAGLKWGHEAIEMHSSYFHIAAWAIPAVKTIVILIMRLVDADELTGLCYVGNQNLDALTGFVVAPLFTYLVIGTLFIAAGLVALFKIRSNLQKDGTKTDKLERLMVKIGVFSVLYTVPATCVIACYFYEISNWALFRYSADDSNMAVEMLKIFMSLLVGITSGMWIWSAKTLHTWQKCSNRLVNSGKVKREKRGNGWVKPGKGSETVV [M105V] | decreasing interaction |

Variants of: B2
Details: with fzd4_human FZD4, Q9ULV1

| Variant | effect of a mutation on the interaction |
| --- | --- |
| MRKHVLAASFSMLSLLVIMGDTDSKTDSSFIMDSDPRRCMRHHYVDSISHPLYKCSSKMVLLARCEGHCSQASRSEPLVSFSTVLKQPFRSSCHCCRPQTSKLKALRLRCSGGMLLTATYRYILSCHCEECNS [R115L] | decreasing interaction |
| MRKHVLAASFSMLSLLVIMGDTDSKTDSSFIMDSDPRRCMRHHYVDSISHPLYDCSSKMVLLARCEGHCSQASRSEPLVSFSTVLKQPFRSSCHCCRPQTSKLKALRLRCSGGMRLTATYRYILSCHCEECNS [K54D] | decreasing interaction |

Reference: IntAct's records for PubMed 17955262
